Source: patent US20220112292A1 (ALETA BIOTHERAPEUTICS, published 2022)
Numbering of substitutions follows the chain as printed.

B1: VHH clone 1H1 (VHH)
VHH: QVQLQESGGGLVQPGGSLRLSCAASGFTFNSYAMTWVRQAPGKGLEWVSDINSGGGSTNYADSVKGRFTISRDNAKNTLYLQMNSLKPEDTAVYYCATELRGSDYYRGPIREYAYWGQGTLVTVSS
notes: includes myc and His tags; also called 2F4
B2: VHH clone 1G6 (VHH)
VHH: QVQLQQSGGGLVQAGGSLRLSCAASGSIFAINEINLMGWYRQAPGKQRELVAACASDGNTYYADSVKGRFTISRDNAEKTVYLQMNNLKPDDTAVYYCDANSRGNYYSGQGTQVTVSS
notes: includes myc and His tags; also called 2G11; 2H2
B3: VHH clone 2F5 (VHH)
VHH: B2 VHH with V12A, A14T, R19I
notes: Includes myc and His tags
B4: VHH clone 2A11 (VHH)
VHH: B2 VHH with Q6E, A14P, Q113L
notes: Includes myc and His tags
B5: VHH clone 2C8 (VHH)
VHH: B2 VHH with Q5V, Q6E, Q113L
notes: Includes myc and His tags
B6: VHH clone 2H10 (VHH)
VHH: B2 VHH with Q6E, S7F
notes: includes myc and His tags; also called 1G3
B7: VHH clone 1A10 (VHH)
VHH: QVQLQESGGGLVQVGESLRLSCVVSGDTRSINLMGWYRQAPGKQRELVAACASDGNTYYADSVKGRFTISRDNAEKTVYLQMNNLKPDDTAVYYCDANSRGNYYSGQGTLVTVSS
notes: Includes myc and His tags
B8: VHH clone 1B11 (VHH)
VHH: AVQLQESGGGLVQAGGSLRLSCAASGSDRSINVMNWYRQAPGKQRELVAAITSGGTTNYAQSVKGRVTISRDSAKNTVYLQMNSLKPEDTAVYFCKADTRWGGMYWGPGTQVTVSS
notes: Includes myc and His tags
B9: VHH clone 1D2 (VHH)
VHH: QVQLQQSGGGLVQPGGSLRLSCAASGFAFDDYAMIWVRQGPGKGLEWVSSISWNGGGTYYAESIVGRFTVSRDNAKKMVYLQMNGLKSEDTAMYYCVKLVDSGWYSAYDYWGQGTQVTVSS
notes: Includes myc and His tags
B10: VHH clone 2A8 (VHH)
VHH: QVQLQAFGGGMVQAGESLRLSCVASGNDISGSAMAWYRAHLGAERELVAVDAPRERPFYIDPVIGRFTISRDDRNKMLYLQMNDLRPDDTATYWCGPSLRTFHGREWYRPPWFTSWGQGTQVTVSS
notes: Includes myc and His tags
B11: VHH clone 2G10 (VHH)
VHH: QVQLQQSGGGLVQAGGSLRLSCAASGSIFSINAMGWYRQAPGKRREMVAVVSRFGETTYTGSVKGRFTISRINRNNTVFLQMNRLKPEDTAVYYCNARIRGNYGSRIDYWGQGTQVTVSS
notes: Includes myc and His tags
B12: VHH clone 1B1 (VHH)
VHH: B2 VHH with Q6E
notes: also called 2A6; 2A10
B13: VHH clone 1B5 (VHH)
VHH: QVQLQESGGGLVQAGGSLRLSCVVSGATSNVNAMGWYRQAPGKERELVAAISSGGSTSYRDSVKGRFTISRDNAKNTLYLQMNSLKPEDTAMYYCAAQDWATEGYEYDYWGQGTLVTVSS
notes: Includes myc and His tags
B14: VHH clone 2F3 (VHH)
VHH: QVQLQAFGGGLVQPGGSLRLSCVVSGTMFSGKDVNWLRQAPGKHVEVVATVSSDGGTDYADFVKGRFTISRDDAKNTVNLQMNSLEPEDTANYMCHFLWGRHYWGQGTQVTVSS
notes: Includes myc and His tags

These binders were tested against T1, CLL-1 on U937 cells (human, UniProt Q5QGZ9 1-265) (assay: flow cytometry on U937 cells, 3x serial dilutions from 3 ug/ml, anti-His-PE).
T1 construct: whole, on cells; also called CLEC12A; Clec12A
T1 sequence: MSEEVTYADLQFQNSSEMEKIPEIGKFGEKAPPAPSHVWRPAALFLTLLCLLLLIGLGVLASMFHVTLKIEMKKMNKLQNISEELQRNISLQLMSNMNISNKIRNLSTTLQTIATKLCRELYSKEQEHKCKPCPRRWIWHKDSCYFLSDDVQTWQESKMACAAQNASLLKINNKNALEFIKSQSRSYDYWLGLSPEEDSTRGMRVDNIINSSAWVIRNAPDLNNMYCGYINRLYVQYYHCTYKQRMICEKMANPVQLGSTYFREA
Procedure: (§1) U937 cell binding by VHH clones was assessed using varying doses to determine EC50s. Briefly, the method included: VHH clones (3 ug/ml as starting conc./test, with 3× serial dilutions) in FACS buffer were added to Fc blocked U937 or 293T-CLL1 cells (2.5×10\hat{ }5), the mixtures were incubated for 30 min at 4° C., then washed twice with FACS buffer by spinning at 500G for 2 min; anti-His-PE was added to cells, the mixture was incubated for 30 min at 4° C. and washed twice with FACS buffer by spinning at 500G for 2 min; 1% PFA (Paraformaldehyde) in PBS was added to cell pellet to fix the cells, followed by FACS analysis. VHH clones tested: 1B5: stock=1.6 mg/ml; 1H1: stock=1.9 mg/ml; 1G6: stock=1.1 mg/ml; 2F3: stock=1.45 mg/ml; 2F5: stock=0.5 mg/ml; 2H3: stock=2 mg/ml.
B1 showed an EC50 of 81 nM.
B2 showed an EC50 of 0.49 nM.
For B3, the EC50 was 0.47 nM.

Each binder was assayed against T1, CLL-1 on U937 cells (assay: flow cytometry on U937 cells, clone lysate, anti-cMyc-PE (Table 3 summary)).
In the case of B1, the “% FACS positive” value is reported as 10.8%.
In the case of B4, the “% FACS positive” value is reported as 86.3%.
For B5, the “% FACS positive” value was 73.4%.
With B3 the “% FACS positive” value was 72.7%.
B6 was tested, and the “% FACS positive” value was 85.9%.
In the case of B7, the “% FACS positive” value is reported as 84.9%.
In the case of B8, the “% FACS positive” value is reported as 77.8%.
B9 was tested, and the “% FACS positive” value was 14.6%.
B10 was tested, and the “% FACS positive” value was 40.1%.
In the case of B11, the “% FACS positive” value is reported as 59.7%.

Each binder was assayed against T1, CLL-1 on U937 cells (assay: flow cytometry on U937 cells, % binding against ng/ml, detected with a-His-PE; EC50 of the fitted curve).
Procedure: as §1
Binder B2 has an EC50 of 7.72 ng/mL.
With B3 the EC50 was 7.45 ng/mL.

What follows are binders tested against T1, CLL-1 on U937 cells (assay: flow cytometry on U937 cells, VHH in 3-fold dilutions, detected with a-His-PE; percent of cells positive).
Procedure: as §1
With B1 the “% binding at 1.4 ng/ml” value was 0.6%, the “% binding at 4.1 ng/ml” value was 0.7% and the “% binding at 12.3 ng/ml” value was 0.7%. For the same binder, the “% binding at 37.0 ng/ml” value was 0.9%, the “% binding at 111.1 ng/ml” value was 2.1% and the “% binding at 333.3 ng/ml” value was 10.4%. For the same binder, the “% binding at 1000 ng/ml” value was 35.7% and the “% binding at 3000 ng/ml” value was 71%.
For B2, the “% binding at 1.4 ng/ml” value was 6%, the “% binding at 4.1 ng/ml” value was 26.8% and the “% binding at 12.3 ng/ml” value was 56.7%. For the same binder, the “% binding at 37.0 ng/ml” value was 83.1%, the “% binding at 111.1 ng/ml” value was 87.7% and the “% binding at 333.3 ng/ml” value was 88.2%. For the same binder, the “% binding at 1000 ng/ml” value was 88.6% and the “% binding at 3000 ng/ml” value was 88.9%.
With B3 the “% binding at 1.4 ng/ml” value was 4.6%, the “% binding at 4.1 ng/ml” value was 24.2% and the “% binding at 12.3 ng/ml” value was 59.3%. The “% binding at 37.0 ng/ml” value was 83.1%, the “% binding at 111.1 ng/ml” value was 86% and the “% binding at 333.3 ng/ml” value was 86.7%. The “% binding at 1000 ng/ml” value was 85.9% and the “% binding at 3000 ng/ml” value was 86.4%.

Molecular target: T2, Clec12A-His (Sino Biological, 11896-H07H) (human, UniProt Q5QGZ9 65-265)
T2 construct: Bought soluble protein; also called soluble CLEC12a-His; Sino Biological Clec12A
T2 chain: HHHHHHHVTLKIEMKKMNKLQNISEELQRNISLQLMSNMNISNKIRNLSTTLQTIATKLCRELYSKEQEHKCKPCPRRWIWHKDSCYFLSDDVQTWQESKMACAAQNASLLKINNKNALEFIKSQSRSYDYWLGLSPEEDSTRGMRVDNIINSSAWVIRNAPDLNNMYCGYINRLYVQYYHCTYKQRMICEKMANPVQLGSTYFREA
Assay: ELISA on plate coated with CLEC12a-His; unlabeled VHH at 10 ug/ml first, biotinylated VHH at 0.2 ug/ml second, streptavidin-HRP
Procedure: ELISAs were used to determine if the VHH clones recognized distinct or similar epitopes. […] The plate was blocked with 0.3% nonfat milk in TBS (200 ul/well) for 1 hr at RT. The plates were washed 3× with 1×TBST (0.1 M Tris, 0.5 M NaCl and 0.05% Tween-20). The test anti-CLEC12a VHHs were added at 10 ug/ml horizontally across the plate, 100 ul per well and incubated for 1 h. Without washing, the test anti-CLEC12a biotinylated VHHs were added at 0.2 ug/ml vertically down the plate, 100 ul per well and incubate for 1 h. After being washed 3× with 1×TBST, HRP-conjugated streptavidin (Pierce #21130) at 1:2000 (100 ul/well) was added, followed by incubation at RT in the dark for 1 hr. For detection, 1-Step Ultra TMB-ELISA reagent (Thermo Fisher #34028) was added at 100 ul per well and read at 450 nm. […] The 1H1 VHH was distinct from these, and 2C2 was intermediate. Results are depicted in FIGS. 7A-7D.
B1: binds.
B12: binds.
B2: binds.
B3: binds.
B7: binds.

These binders were tested against T1, CLL-1 on U937 cells (assay: flow cytometry on U937 cells, VHH at 3 ug/ml, detected with a-His-PE; a-His-PE alone 1.1% and 5,576.5, unstained 0.6% and 5,793.5).
Procedure: U937 cell binding by VHH clones was assessed. Briefly, the method included: U937 cells (2.5×10\hat{ }5) were Fc blocked (human Fc block, BD Cat. #BDB564220) for 10 min at room temperature, then washed once with FACS buffer (PBS+1% BSA+0.1% Sodium Azide) by spinning at 500G for 2 min; VHH clones (3 μg/ml as final conc) in FACS buffer were added to the cell pellets and incubated for 30 min at 4° C., then washed twice with FACS buffer by spinning at 500G for 2 min; anti-His-PE (R&D Systems, Cat. #IC050P) was added to cells; the mixture was incubated for 30 min at 4° C. and washed twice with FACS buffer by spinning at 500G for 2 min; 1% PFA (Paraformaldehyde) in PBS was added to cell pellet to fix the cells, followed by FACS analysis. VHH clones tested: 1B5: stock=1.6 mg/ml; 1H1: stock=1.9 mg/ml; 1G6: stock=1.1 mg/ml; 2F3: stock=1.45 mg/ml; 2F5: stock=0.5 mg/ml; 2H3: stock=2 mg/ml. As shown in FIGS. 2A-2C, binding of clones 1H1, 1G6, 2F5 and 2H3 to U937 cells was detected with anti-His-PE; very little binding of clones 1B5 and 2F3 to U937 cells could be detected by anti-His-PE.
B13 was tested, and the “% of This Plot (R3 PE+)” value was 2.3% and the “Mean FL2-A (R3 gate)” value was 4130.
B1 was tested, and the “% of This Plot (R3 PE+)” value was 88.6% and the “Mean FL2-A (R3 gate)” value was 6730.
B2 was tested, and the “% of This Plot (R3 PE+)” value was 95.6% and the “Mean FL2-A (R3 gate)” value was 9310.
For B3, the “% of This Plot (R3 PE+)” value was 95.5% and the “Mean FL2-A (R3 gate)” value was 9260.
For B14, the “% of This Plot (R3 PE+)” value was 12.4% and the “Mean FL2-A (R3 gate)” value was 3570.

What follows are binders tested against T1, CLL-1 on U937 cells (assay: flow cytometry on U937 cells, % binding against ng/ml, detected with a-His-PE; EC50 of the fitted curve; the curve of 1H1 reaches about 70% at 3000 ng/ml without a plateau).
Procedure: as §1
B1 gave an EC50 of 1370 ng/mL.
